Data on two molecules can be found in patent US20190023770A1.

What all share (assay): cell-based or functional assay
For assay [1], the target named is hemagglutinin of influenza A virus H3N2 A/Port Chalmers/1/1973 (influenza A virus A/Port Chalmers/1/1973 (H3N2)).
Assay [2] deals with hemagglutinin of influenza A virus H3N2 A/Hong Kong/1/1968 (influenza A virus A/Hong Kong/1/1968 (H3N2)) (UniProt Q91MA7).
The target of assay [3] is hemagglutinin of influenza A virus H3N2 A/Aichi/2/1968 (influenza A virus A/Aichi/2/1968 (H3N2)) (UniProt P03437).

Substitutions are numbered along the chain they refer to.

B1: monoclonal antibody 39.29 NWPP (antibody, V domains shown)
VH: EVQLVESGGGVVQPGKSLRLSCAASGLTFSSYAVHWVRQAPGKGLEWVTLISYDGANQYYADSVKGRFTISRDNSKNTVYLQMNSLRPEDTAVYYCAVPGPVFGIFPPWSYFDNWGQGILVTVSS
VL: EIVLTQSPATLSVSPGERATLSCRASQVISHNLAWYQQKPGQAPRLLIYGASTRASGIPARFSGSGSGTDYTLTITSLQSEDFAVYYCQHYSNWPPRLTFGGGTKVEIK
For the molecule B1, the values for the in vitro IC50 (neutralization of virus infection of MDCK cells) in assay [1], in assay [2] and in assay [3] were 2.2 nM, 45.1 nM and 35 nM, respectively.

B2: monoclonal antibody 39.29 NCv1 (antibody, V domains shown)
VH: B1 VH with E1Q, L18P, L27P
VL: B1 VL with S80P
In the case of B2, the in vitro IC50 (neutralization of virus infection of MDCK cells) in assay [1] was 2.9 nM; in assay [3] it was 35 nM.
